How the values were obtained:
human CD28 on cells [1] = target: T1, human CD28 on cells (human, UniProt P10747 19-220); assay: cell-based or functional assay
human CD28 on cells [2] = target: T1, human CD28 on cells; assay: flow cytometry, primary human T cells
Protocol: Binding affinity to CD28 was determined using primary human T cells which endogenously express CD28. Binding to PD-L1 was determined using SCC152 cells transduced with human PD-L1. Binding to CTLA-4 was measured using Chinese hamster ovary (CHO) cells stably transduced to express human CTLA-4.
For staining and analysis by flow cytometry, 75,000 human T cells, SCC152/PD-L1 cells, or CHO/CTLA-4 cells were plated in 96-well round-bottom plates. Cells were spun down and resuspended in staining buffer (PBS (phosphate buffered saline), 1% BSA (bovine serum albumin), 1 mM EDTA, and 0.1% sodium azide) for 20 minutes to block non-specific binding. Afterwards, cells were centrifuged, stain buffer aspirated, and then resuspended in 50 μL of a 1:5 serial dilution of each CD80-Fc candidate variant starting at 100 nM ending at 0.8 nM. Primary staining was performed on ice for 60 minutes, before washing cells in […] staining buffer three times. PE-conjugated anti-human Fc (Jackson ImmunoResearch, USA) was diluted 1:250 in 50 μL staining buffer and added to cells and incubated another 30 minutes at 4° C. Cells were washed two times in 150 μL stain buffer and then fixed in 2% formaldehyde/PBS for 5 minutes at room temperature. Samples were analyzed CytoFLEX LX flow cytometer (Beckman Coulter, USA). Median Fluorescence Intensity (MFI) was calculated for each cell type using the CytExpert software from Beckman Coulter.
Binding assays were carried out to assess the specificity and affinity of multivalent proteins to cell-expressed CTLA-4, CD28, and PD-L1 counter structures.

[3] = target: human CD28 (endogenously expressed on primary human T cells) (human) (UniProt P10747); assay: flow cytometry, primary human T cells
human CTLA-4 (human) = human CTLA-4 (human) (UniProt P16410); assay: flow cytometry on CHO/CTLA-4 cells
human CTLA-4 (human), sequence (P16410 36-223): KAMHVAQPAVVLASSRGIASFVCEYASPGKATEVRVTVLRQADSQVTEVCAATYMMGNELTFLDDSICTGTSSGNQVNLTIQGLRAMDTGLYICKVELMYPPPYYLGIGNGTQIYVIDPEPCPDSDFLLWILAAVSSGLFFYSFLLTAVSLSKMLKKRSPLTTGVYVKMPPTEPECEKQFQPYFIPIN

MFI (anti-human Fc) at 0.8 nM [3] [MFI]	MFI (anti-human Fc) at 4 nM [3] [MFI]	MFI (anti-human Fc) at 20 nM [3] [MFI]	MFI (anti-human Fc) at 100 nM [3] [MFI]	Substance	further results
				WT CD80 ECD-Fc IgG4 (Fc fusion)	Rel. Luminescence Units (RLU) at 2 nM, K562/OKT3/PD-L1 + Jurkat/IL-2 reporter (human CD28 on cells [1]): 2830 RLU; Rel. Luminescence Units (RLU) at 10 nM, K562/OKT3/PD-L1 + Jurkat/IL-2 reporter (human CD28 on cells [1]): 2660 RLU; Rel. Luminescence Units (RLU) at 50 nM, K562/OKT3/PD-L1 + Jurkat/IL-2 reporter (human CD28 on cells [1]): 2440 RLU; Rel. Luminescence Units (RLU) at 250 nM, K562/OKT3/PD-L1 + Jurkat/IL-2 reporter (human CD28 on cells [1]): 2640 RLU; Anti-Human Fc (MFI) at 0.8 nM (human CD28 on cells [2]): 178 MFI; Anti-Human Fc (MFI) at 4 nM (human CD28 on cells [2]): 168 MFI; Anti-Human Fc (MFI) at 20 nM (human CD28 on cells [2]): 180 MFI; Anti-Human Fc (MFI) at 100 nM (human CD28 on cells [2]): 184 MFI
178	168	180	184	wild-type CD80 ECD-Fc (unmodified CD80 ECD fused to IgG4 Fc) (Fc fusion)	
201	191	224		CD80_188-Fc, variant CD80 IgV-Fc E35D/V68L/L85E (Fc fusion)	
245	247	274	301	CD80_196-Fc, variant CD80 IgV-Fc V11Y/M42W/E52K/T62A/L85E (Fc fusion)	fold change of MFI vs WT CD80 at 20 nM [3]: 1.5 fold
199	201	254		CD80_201-Fc, variant CD80 IgV-Fc E10G/H18Y/T28Y/M47W/T62S (Fc fusion)	
	212		313	CD80_181-Fc, variant CD80 IgV-Fc K9S/E10R/V11Y/M47L/A71G (Fc fusion)	
				CD80_168 variant CD80 IgV-Fc (K9N, E10G, N63S, L85E) (Fc fusion)	MFI at 0.8 nM (human CTLA-4 (human)): 415 MFI; MFI at 4 nM (human CTLA-4 (human)): 631 MFI; MFI at 20 nM (human CTLA-4 (human)): 830 MFI; MFI at 100 nM (human CTLA-4 (human)): 3160 MFI; fold change vs WT CD80 at 20 nM (human CTLA-4 (human)): 0 fold
